# Reference: publication PMC9352680, “A comprehensive thermodynamic model for RNA binding by the Saccharomyces cerevisiae Pumilio protein PUF4”
# Where a chain is given by its changes, count along the chain named. In names and notes the source's numbering stands.
# T1: PUF4 RNA-binding domain (Saccharomyces cerevisiae, UniProt P25339 537-888)
# T1 sequence: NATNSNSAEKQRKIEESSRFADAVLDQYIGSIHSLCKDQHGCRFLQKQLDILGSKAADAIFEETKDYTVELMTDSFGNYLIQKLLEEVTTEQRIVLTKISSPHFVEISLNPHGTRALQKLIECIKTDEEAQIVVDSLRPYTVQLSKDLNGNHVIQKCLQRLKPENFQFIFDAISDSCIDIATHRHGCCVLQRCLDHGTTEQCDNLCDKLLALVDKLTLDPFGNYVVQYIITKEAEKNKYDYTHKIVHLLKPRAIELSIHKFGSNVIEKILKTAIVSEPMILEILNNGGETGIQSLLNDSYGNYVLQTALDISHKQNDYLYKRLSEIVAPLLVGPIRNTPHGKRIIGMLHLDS
# B1: Ic_S2_P4E.1_K4.1_C4.1_H4.1_A4.1_[T5C]_[A6T]_[T7C]_F4.1_[T8C]_T4.1 (ssRNA)
# RNA: UUUGAUUAAUAUGAUAUCGUUCUUUCUUGUACUCCAUUCUUUCUCGAUAUCAUAUUAAUCUUU
# B2: Ic_S2_P4E.1_K4.1_C4.1_H4.1_A4.1_[T5C]_[A6T]_F4.1_[A9C]_T4.1 (ssRNA)
# RNA: B1 RNA with C34U, C35U, A36C
# B3: Ic_S2_P4E.1_K4.1_C4.1_H4.1_A4.1_[T5C]_[A6T]_F4.1_[T8C]_[A9C]_T4.1 (ssRNA)
# RNA: B1 RNA with C34U, A36C
# B4: Ic_S2_P4E.1_K4.1_C4.1_H4.1_A4.1_[T5C]_[T7A]_F4.1_[T8C]_[A9G]_T4.1 (ssRNA)
# RNA: B1 RNA with U33A, C34A, A36G
# B5: Ic_S2_P4E.1_K4.1_C4.1_H4.1_A4.1_[T5A]_[A6C]_F4.1_[T8G]_[A9G]_T4.1 (ssRNA)
# RNA: B1 RNA with C32A, U33C, C34U, C35G, A36G
# B6: Ic_S2_P4E.1_K4.1_C4.1_H4.1_A4.1_[T5C]_[A6T]_F4.1_[T8A]_[A9G]_T4.1 (ssRNA)
# RNA: B1 RNA with C34U, C35A, A36G
# B7: Ic_S2_P4E.1_K4.1_C4.1_H4.1_A4.1_[T5C]_[A6T]_F4.1_[T8C]_[A9G]_T4.1 (ssRNA)
# RNA: B1 RNA with C34U, A36G
# B8: Ic_S2_P4E.1_K4.1_C4.1_H4.1_A4.1_[T5C]_[T7C]_F4.1_[A9C]_T4.1 (ssRNA)
# RNA: B1 RNA with U33A, C35U, A36C
# B9: Ic_S2_P4E.1_K4.1_C4.1_H4.1_A4.1_[T5C]_F4.1_[T8C]_[A9C]_T4.1 (ssRNA)
# RNA: B1 RNA with U33A, C34U, A36C
# B10: Ic_S2_P4E.1_K4.1_C4.1_H4.1_A4.1_[T5C]_[T7G]_F4.1_[T8C]_T4.1 (ssRNA)
# RNA: B1 RNA with U33A, C34G
# B11: Ic_S2_P4E.1_K4.1_C4.1_H4.1_A4.1_[T5A]_[A6C]_[T7C]_F4.1_[T8C]_[A9C]_T4.1 (ssRNA)
# RNA: B1 RNA with C32A, U33C, A36C
# B12: Ic_S2_P4E.1_K4.1_C4.1_H4.1_A4.1_[T5C]_[T7A]_F4.1_[T8C]_[A9C]_T4.1 (ssRNA)
# RNA: B1 RNA with U33A, C34A, A36C
# B13: Ic_S2_P4E.1_K4.1_C4.1_H4.1_A4.1_[T5C]_[T7C]_F4.1_[T8A]_T4.1 (ssRNA)
# RNA: B1 RNA with U33A, C35A
# B14: Ic_S2_P4E.1_K4.1_C4.1_H4.1_A4.1_[T5C]_[A6T]_F4.1_[T8A]_T4.1 (ssRNA)
# RNA: B1 RNA with C34U, C35A
# B15: Ic_S2_P4E.1_K4.1_C4.1_H4.1_A4.1_[T5C]_[A6T]_[T7C]_F4.1_[T8A]_[A9T]_T4.1 (ssRNA)
# RNA: B1 RNA with C35A, A36U
# B16: Ic_S2_P4E.1_K4.1_C4.1_H4.1_A4.1_[T5A]_[A6C]_[T7C]_F4.1_[T8C]_T4.1 (ssRNA)
# RNA: B1 RNA with C32A, U33C
# B17: Ic_S2_P4E.1_K4.1_C4.1_H4.1_A4.1_[T5A]_[A6C]_[T7G]_F4.1_[T8G]_[A9T]_T4.1 (ssRNA)
# RNA: B1 RNA with C32A, U33C, C34G, C35G, A36U
# B18: Ic_S2_P4E.1_K4.1_C4.1_H4.1_A4.1_[T5A]_[A6C]_[T7C]_F4.1_[A9T]_T4.1 (ssRNA)
# RNA: B1 RNA with C32A, U33C, C35U, A36U
# B19: Ic_S2_P4E.1_K4.1_C4.1_H4.1_A4.1_[T5A]_[A6C]_[T7C]_F4.1_[T8C]_[A9G]_T4.1 (ssRNA)
# RNA: B1 RNA with C32A, U33C, A36G
# B20: Ic_S2_P4E.1_K4.1_C4.1_H4.1_A4.1_[T5C]_F4.1_[T8A]_[A9C]_T4.1 (ssRNA)
# RNA: B1 RNA with U33A, C34U, C35A, A36C
# B21: Ic_S2_P4E.1_K4.1_C4.1_H4.1_A4.1_[T5C]_[A6T]_[T7A]_F4.1_[T8G]_[A9T]_T4.1 (ssRNA)
# RNA: B1 RNA with C34A, C35G, A36U
# B22: Ic_S2_P4E.1_K4.1_C4.1_H4.1_A4.1_[T5C]_[T7C]_F4.1_[A9G]_T4.1 (ssRNA)
# RNA: B1 RNA with U33A, C35U, A36G
# B23: Ic_S2_P4E.1_K4.1_C4.1_H4.1_A4.1_[T5A]_[A6C]_[T7C]_F4.1_[A9C]_T4.1 (ssRNA)
# RNA: B1 RNA with C32A, U33C, C35U, A36C
# B24: Ic_S2_P4E.1_K4.1_C4.1_H4.1_A4.1_[T5C]_[A6T]_F4.1_[T8G]_[A9G]_T4.1 (ssRNA)
# RNA: B1 RNA with C34U, C35G, A36G
# B25: Ic_S2_P4E.1_K4.1_C4.1_H4.1_A4.1_[T5C]_[A6T]_[T7A]_F4.1_[T8A]_[A9C]_T4.1 (ssRNA)
# RNA: B1 RNA with C34A, C35A, A36C
# B26: Ic_S2_P4E.1_K4.1_C4.1_H4.1_A4.1_[T5A]_[A6C]_[T7G]_F4.1_[T8C]_[A9T]_T4.1 (ssRNA)
# RNA: B1 RNA with C32A, U33C, C34G, A36U
# B27: Ic_S2_P4E.1_K4.1_C4.1_H4.1_A4.1_[T5C]_[A6T]_F4.1_[T8C]_[A9T]_T4.1 (ssRNA)
# RNA: B1 RNA with C34U, A36U
# Target: T1, PUF4 RNA-binding domain
# Test: Mg; RNA-MaP; 20 mM Na-HEPES pH 7.4, 30 mM KOAc, 0.75 mM MgCl2, 0.1% Tween-20, 5% glycerol, 0.1 mg/mL BSA, 2 mM DTT; 25 C; 0.0125-409.6 nM protein
# Settings: tags: N-His6-TEV cleaved; C-SNAP kept, Cy3B-labelled; label: tethered on chip by stalled RNA polymerase
row,Binder,Kd
1,UCUCUUUGUAGCUAUCUCUU (ssRNA) [Ib_S1_P3E.1_K3.1_C3.1_H3.1_A3.1_[T5G]_[A6C]_F3.1_T3.1],819 nM
2,UCUCUUUGUACGUAUCUCUU (ssRNA) [Ic_S1_P3E.1_K3.1_C3.1_H3.1_A3.1_[T5C]_[A6G]_F3.1_T3.1],149 nM
3,B1,213 nM
4,B2,13.3 nM
5,B3,102 nM
6,B4,55.1 nM
7,B5,701 nM
8,B6,141 nM
9,B7,110 nM
10,B8,5.21 nM
11,B9,12.3 nM
12,B10,206 nM
13,B11,582 nM
14,B12,87.7 nM
15,B13,13.8 nM
16,B14,22.9 nM
17,B15,68.6 nM
18,B16,666 nM
19,B17,1410 nM
20,B18,24.6 nM
21,B19,742 nM
22,B20,4.76 nM
23,B21,538 nM
24,B22,2.73 nM
25,B23,44.4 nM
26,B24,430 nM
27,B25,519 nM
28,B26,190 nM
29,B27,24.4 nM
